Source: patent US10995119B2, “Peptide exhibiting hydrolytic activity and use thereof” (Okinawa Institute of Science and Technology School …, priority 2016, dated 2021)

Key:
[1] = Autodigestion of the catalytic peptide (HPLC, MS); assay type: biochemical
Protocol: (§1) First, to a buffer solution (Tris-HCl, pH 6.5, final concentration: 100 mmol/l), JAL (final concentration: 0.2 mmol/l) and the fragment peptide of hMMP7 (final concentration 0.05 mmol/l) were added. […] Thereafter, the reaction solution was subjected to HPLC, and the peaks of JAL and the fragment peptide of hMMP7 were examined. HPLC was performed under the following conditions.
Next, the mechanism of autodigestion was examined using various mutants of JAL as hydrolytic peptides. To a reaction solution containing each of the mutants of JAL, a protease inhibitor (trade name: Roche cOmplete, Roche) was added to cause a reaction. One tablet of the protease inhibitor was dissolved in 1 ml of Milli-Q water, and then, 50 μl of the resultant mixture was added to the reaction solution. […] As a result, the autodigestion of all the peptides subjected to the measurement was inhibited (FIG. 16).
Autodigestion in Box B was examined.
JAL-TA9 was reacted in the same manner except that a substrate was not added to examine the autodigestion of JAL-TA9.
The influence of an inhibitor on autodigestion of JAL-TA9 was examined. […] As the protease inhibitor, the serine protease inhibitor AEBSF, which inhibited the autodigestion of JAL 12-22 C19M in the item (6) in Example 4, was used.

SOD1 2-38 = SOD1 2-38 (Homo sapiens, UniProt P00441); test: Hydrolysis activity against SOD1 2-38; assay type: biochemical
Chain of SOD1 2-38 (P00441 2-38 limits assumed): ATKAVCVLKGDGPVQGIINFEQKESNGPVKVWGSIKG
Protocol: As a control, physiological saline (0.9 w/v %) was used instead of the buffer solution. […] Also, it is considered that physiological saline is suitable for storage of JAL before use, for example.
Next, an experiment was conducted to consider an optimal pH for activity using JAL as the hydrolytic peptide and SOD1 2-38 as a substrate.
Metal ions to be added to a reaction solution were Zn^2+, Ca^2+, Co^2+, or combinations thereof. The concentrations of the metal ions in the respective reaction solutions were as follows: 10 mmol/l for Ca^2+; and 5 μmol/l for the other metal ions.
(§2) In JAL 1-22 C19M and JAL 7-22 C19M, Cys residues contained in JAL form S—S bonds during a reaction, and this makes fragment analysis difficult. On this account, JAL 1-22 and JAL 7-22 were modified so as to substitute Cys residues by Met.

SOD1 2-12 = SOD1 2-12 (Homo sapiens, UniProt P00441); test: Hydrolysis activity against SOD1 2-12; assay type: biochemical
Excerpt: as §2

[2] = target: T1, human serum albumin (HSA) (Homo sapiens, UniProt P02768); test: Cleavage of HSA as substrate; assay type: biochemical; settings: HSA 0.025%
T1 construct: purchased Wako Pure Chemical Industries, Ltd
Protocol: (§3) On the other hand, by adding either HSA or BSA to the reaction solution, autodigestion of JAL 7-22 C 19M was […]. […] Since serum albumin is present in the body, it is considered that the hydrolytic peptide is suitable for use in the body. In experiments to be described below, the hydrolysis activity of JAL was measured in a reaction solution containing HSA.

[3] = target: T2, bovine serum albumin (BSA) (Bos taurus, UniProt P02769); test: Cleavage of BSA as substrate; assay type: biochemical; settings: BSA 0.025%
T2 construct: purchased Wako Pure Chemical Industries, Ltd
T2 sequence (P02769 25-607): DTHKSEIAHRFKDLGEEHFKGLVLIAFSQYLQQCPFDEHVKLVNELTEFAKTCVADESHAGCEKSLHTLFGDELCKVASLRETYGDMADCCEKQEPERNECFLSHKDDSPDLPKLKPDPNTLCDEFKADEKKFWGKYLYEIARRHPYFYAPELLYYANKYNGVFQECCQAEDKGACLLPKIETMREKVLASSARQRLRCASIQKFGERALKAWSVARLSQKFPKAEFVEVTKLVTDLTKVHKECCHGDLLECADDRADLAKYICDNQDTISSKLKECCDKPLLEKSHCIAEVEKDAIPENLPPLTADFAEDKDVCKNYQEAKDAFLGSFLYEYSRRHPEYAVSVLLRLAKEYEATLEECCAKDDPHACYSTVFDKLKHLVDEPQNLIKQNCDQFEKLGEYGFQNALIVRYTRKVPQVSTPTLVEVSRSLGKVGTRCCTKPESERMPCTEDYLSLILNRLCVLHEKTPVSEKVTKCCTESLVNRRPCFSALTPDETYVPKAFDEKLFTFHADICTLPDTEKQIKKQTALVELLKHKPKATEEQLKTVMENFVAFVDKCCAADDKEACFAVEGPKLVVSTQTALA
Protocol: as §3

Aβ1-20 = Aβ1-20 (Homo sapiens, UniProt P05067); test: Hydrolysis activity against Aβ1-20
Chain of Aβ1-20 (P05067 672-691 limits assumed): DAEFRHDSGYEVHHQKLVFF
Protocol: Further, any change in activity caused by addition of human serum albumin (HSA, Wako Pure Chemical Industries, Ltd., final concentration 0.025%) also was measured.
As substrates, Aβ42 in the form of soluble powder (authentic sample, Peptide Institute Inc.) and fragment peptides thereof, namely, Aβ1-20, Aβ11-29, and soluble Aβ28-42, were used. […] In the case of MS analysis, the MS analysis was performed after applying 20 μl of the reaction solution to HPLC and collecting an aliquot of the peak.
The present experiment examined activity against Aβ-Fs in Example 7.
As substrates, the same Aβ1-20 and Aβ11-29 as used in Example 7 were used.

hMMP7 42-50 = target: T3, hMMP7 42-50 (Homo sapiens, UniProt P09237); test: Hydrolysis activity against hMMP7 42-50 (HPLC, MS); assay type: biochemical
T3 construct: host or cells: synthetic peptide
Protocol: (§4) The present example examined whether a synthetic peptide JAL has hydrolysis activity against synthetic peptides derived from the prodomain of human matrix metalloprotease 7 (hMMP7).
(§5) The following JAL was used as a hydrolytic peptide, and hMMP7 42-50 or hMMP7 26-50 was used as a substrate.
as §1
(§6) Then, in HPLC, aliquots of the peaks were collected (each 20 μl), and fragment identification was performed by mass spectrometry (ABI QSTAR Elite system) (referred to as “MS” hereinafter). MS was performed by a flow injection method under the following conditions.

hMMP7 26-50 = target: T4, hMMP7 26-50 (Homo sapiens, UniProt P09237); test: Hydrolysis activity against hMMP7 26-50 (HPLC, MS); assay type: biochemical
T4 construct: host or cells: synthetic peptide
T4 sequence (P09237 26-50 limits assumed): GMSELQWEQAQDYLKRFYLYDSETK
Protocol: as §4, §5, §1, §6

hMMP7 1-42 = target: T5, hMMP7 1-42 (Homo sapiens, UniProt P09237); test: Hydrolysis activity against hMMP7 1-42, optimal pH; assay type: biochemical; settings: 5 days
T5 sequence (P09237 18-42): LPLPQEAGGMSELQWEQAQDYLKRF
Excerpt: The pH of the reaction solution was adjusted using an acetate buffer solution in the pH range from 3.5 to 6.0 and using a Tris-HCl buffer solution in the pH range from 6.5 to 8.0. In either case, the final concentration was set to 150 mmol/l.

SOD1 12-38 = SOD1 12-38 (Homo sapiens, UniProt P00441); test: Hydrolysis activity against SOD1 12-38; assay type: biochemical; settings: pH 6.5 or 7.5, 3 or 4 days
Chain of SOD1 12-38 (P00441 12-38 limits assumed): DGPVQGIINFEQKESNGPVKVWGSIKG

SOD1 53-70 = SOD1 53-70 (Homo sapiens, UniProt P00441); test: Hydrolysis activity against SOD1 53-70; assay type: biochemical; settings: pH 6.5 or 7.5, 3 or 4 days
SOD1 115-154 = SOD1 115-154 (Homo sapiens, UniProt P00441); test: Hydrolysis activity against SOD1 115-154; assay type: biochemical; settings: pH 6.5 or 7.5, 3 or 4 days
Chain of SOD1 115-154 (P00441 115-154): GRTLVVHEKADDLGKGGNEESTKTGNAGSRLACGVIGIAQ

[4] = Example 3 (1), substrate SOD1 2-38 or SOD1 2-12
[5] = JAL 0.2 mmol/l, substrate 0.05 mmol/l, Tris-HCl pH 6.5, 37° C., 14 days, HPLC

Sequence: YPEKPYKGSGFRMIHI [JAL 7-22 C19M]
- autodigestion in presence of protease inhibitor ([1]; HSA added, Roche cOmplete or AEBSF): fragments generated by autodigestion disappeared
- autodigestion, effect of albumin ([1]; HSA or BSA (0.025%) added): enhanced
- hydrolysis activity of JAL mutants (SOD1 2-38; [4]): exhibited hydrolysis activity
- hydrolysis activity of JAL mutants (SOD1 2-12; [4]): exhibited hydrolysis activity
- cleavage of albumin as substrate [2]: cleavage by JAL was not observed
- cleavage of albumin as substrate [3]: cleavage by JAL was not observed
- hydrolysis activity against Aβ1-20 (Aβ1-20; Example 3 (2), (6)): exhibited activity

Sequence: KYEGHWYPEKPYKGSGFRCIHI [JAL]
- cleavage of substrate, fragment identification by MS (hMMP7 42-50; 16 days): cleaved at a plurality of sites
- hydrolysis activity against hMMP7 42-50 (hMMP7 42-50; [5]): has activity
- cleavage of substrate, fragment identification by MS (hMMP7 26-50; 16 days): cleaved at a plurality of sites
- hydrolysis activity against hMMP7 26-50 (hMMP7 26-50; [5]): has activity
- hydrolysis activity against hMMP7 1-42 (hMMP7 1-42; pH 3.5 to 6.0, acetate buffer 150 mmol/l): exhibited activity
- hydrolysis activity against hMMP7 1-42 (hMMP7 1-42; pH 6.5 to 8.0, Tris-HCl 150 mmol/l): the results obtained were the same as that obtained after a lapse of 0 days from the start of the reaction
- autodigestion ([1]; Tris-HCl pH 6.5, 37° C., 14 days, with hMMP7 fragment): autodigestion of JAL occurred
- cleavage sites, fragment identification by MS (SOD1 2-38): a plurality of sites indicated with arrows were cleaved
- hydrolysis activity against SOD1 2-38 (SOD1 2-38; Tris buffer solution at various concentrations, 1 or 4 days): exhibited activity regardless of the concentration of the Tris buffer solution
- hydrolysis activity against SOD1 2-38 (SOD1 2-38; assay buffer solution (50 mmol/l Tris-HCl pH 7.5, NaCl, Ca, Zn, Briji35, NaN3) vs Tris buffer pH 6.5, 0, 1, 3 days): cleavage by JAL was observed earlier
- hydrolysis activity against SOD1 2-38 (SOD1 2-38; only Milli-Q water (0 mmol/l Tris)): did not exhibit activity
- hydrolysis activity against SOD1 2-38 (SOD1 2-38; pH 6.5 or 7.5, 3 or 4 days): strong activity
- hydrolysis activity against SOD1 2-38 (SOD1 2-38; pH 6.5 to 8.0 in increments of 0.5, 1 day): exhibited activity at all the pH values
- hydrolysis activity against SOD1 2-38 (SOD1 2-38; physiological saline (0.9 w/v %) instead of buffer): did not exhibit activity
- hydrolysis activity against SOD1 2-38 (SOD1 2-38; with or without Zn2+, Ca2+, Co2+, 1 day): exhibited activity regardless of the presence or absence of the metals
- hydrolysis activity against SOD1 12-38 (SOD1 12-38): has activity
- hydrolysis activity against SOD1 53-70 (SOD1 53-70): strong activity
- hydrolysis activity against SOD1 115-154 (SOD1 115-154): did not exhibit activity
- cleavage sites, fragment identification by MS (SOD1 2-12): a plurality of sites indicated with arrows were cleaved
- hydrolysis activity against SOD1 2-12 (SOD1 2-12; pH 6.5 or 7.5, 3 or 4 days): has activity
- hydrolysis activity against Aβ1-20 (Aβ1-20; Example 3 (2), (6)): has activity
- hydrolysis activity against Aβ1-20 (Aβ1-20; PBS (pH 7.4), 3 or 5 days): exhibited activity
- hydrolysis activity against Aβ1-20 (Aβ1-20; phosphate buffer solution, 3 or 5 days): did not exhibit activity
